Literature values as cited in publication PMC4519920.

Biological target: hsp70 (UniProt P0DMV8)
Chain of UniProt P0DMV8 (P0DMV8 2-641): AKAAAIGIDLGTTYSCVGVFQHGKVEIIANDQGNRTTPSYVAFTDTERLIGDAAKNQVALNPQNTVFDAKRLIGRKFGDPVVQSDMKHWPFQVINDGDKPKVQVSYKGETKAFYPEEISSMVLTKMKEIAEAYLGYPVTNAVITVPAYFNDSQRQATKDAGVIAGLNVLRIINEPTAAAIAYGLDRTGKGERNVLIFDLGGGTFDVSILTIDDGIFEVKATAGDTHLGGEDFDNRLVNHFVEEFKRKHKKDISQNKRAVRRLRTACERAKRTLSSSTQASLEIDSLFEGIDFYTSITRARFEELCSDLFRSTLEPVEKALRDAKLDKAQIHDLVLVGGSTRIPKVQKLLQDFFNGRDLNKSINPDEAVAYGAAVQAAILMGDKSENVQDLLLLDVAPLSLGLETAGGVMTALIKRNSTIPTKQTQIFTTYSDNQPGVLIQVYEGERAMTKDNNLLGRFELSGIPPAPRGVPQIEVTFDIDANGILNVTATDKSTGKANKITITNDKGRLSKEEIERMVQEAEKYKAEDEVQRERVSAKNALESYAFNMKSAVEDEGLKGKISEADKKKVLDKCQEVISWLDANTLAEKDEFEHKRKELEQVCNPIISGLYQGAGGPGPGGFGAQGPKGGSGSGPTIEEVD

## Nucleoprotein NTAIL Box2 (from UniProt P35972)
  Kd: 10 nM
